From patent publication US20240376170A1 (BRIGHT PEAK THERAPEUTICS, published 2024)
Bridges are numbered along the chain shown (N, C = ends). Primed or numbered codes have the meaning given here. [ ]: non-standard residue; d: D form. 8x polyethylene glycol‑amino = O-(8x polyethylene glycol-amino)-tyrosine, SITE 45; 9x polyethylene glycol‑azido = O-(9x polyethylene glycol-azido)-tyrosine, SITE 42; Ygp″ = O-(8x polyethylene glycol-amino)-tyrosine; Yn3″ = O-(9x polyethylene glycol-azido)-tyrosine; hSer = N[C@@H](CCO)C(=O)O; Nle = CCCC[C@H](N)C(=O)O

T1: IL-2 receptor βγ complex (human, UniProt P14784 27-551; P31785 23-369)
T1 sequence (looked up) 1: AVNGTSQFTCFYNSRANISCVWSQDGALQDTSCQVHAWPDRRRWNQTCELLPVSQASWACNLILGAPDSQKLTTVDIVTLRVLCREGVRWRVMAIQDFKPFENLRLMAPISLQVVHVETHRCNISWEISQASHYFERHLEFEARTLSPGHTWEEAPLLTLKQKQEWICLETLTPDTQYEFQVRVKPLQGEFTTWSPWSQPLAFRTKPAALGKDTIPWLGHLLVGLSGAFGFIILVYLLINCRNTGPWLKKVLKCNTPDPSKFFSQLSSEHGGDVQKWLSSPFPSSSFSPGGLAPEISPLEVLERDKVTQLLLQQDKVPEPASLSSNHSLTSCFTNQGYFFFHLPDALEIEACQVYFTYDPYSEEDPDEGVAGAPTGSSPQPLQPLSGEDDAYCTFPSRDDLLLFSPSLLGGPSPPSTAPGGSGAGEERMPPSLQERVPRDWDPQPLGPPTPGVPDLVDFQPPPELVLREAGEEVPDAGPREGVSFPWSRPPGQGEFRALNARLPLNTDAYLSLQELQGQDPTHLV
T1 sequence (looked up) 2: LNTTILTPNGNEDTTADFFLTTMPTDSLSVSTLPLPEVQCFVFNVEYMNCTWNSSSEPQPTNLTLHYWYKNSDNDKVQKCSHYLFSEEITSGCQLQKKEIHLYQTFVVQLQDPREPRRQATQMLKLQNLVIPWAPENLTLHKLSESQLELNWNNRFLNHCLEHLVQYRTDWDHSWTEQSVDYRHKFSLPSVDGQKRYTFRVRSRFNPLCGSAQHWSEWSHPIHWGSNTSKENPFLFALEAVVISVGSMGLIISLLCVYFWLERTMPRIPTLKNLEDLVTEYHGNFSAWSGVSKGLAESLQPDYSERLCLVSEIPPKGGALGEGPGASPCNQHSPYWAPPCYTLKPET

B1: CMP-328, MMP2 cleaved molecule (ligand)
chain: APTSSSTKKTQLQLEHLLLDLQEILNGINNYKNPKLTR[Nle]L[hSer][Yn3″]KF[Ygp″][Nle]PKKATELKHLQCLEEELKPLEEVL[hSer]LAQSKNFHLRPRDLISNINVIVLELKGSETTF[hSer]CEYADETATIVEFLNRWITFSQSIISTLT
modifications: ends and bridges not checked; also: after MMP2 cleavage, remnants of the Lys9–Glu23 peptide linker not given here
B2: CMP-316, uPa cleaved molecule (ligand)
chain: APTSSSTKKTQLQLEHLLLDLQKILNGINNYKNPKLTR[Nle]L[hSer]Y(9x polyethylene glycol‑azido)KFY(8x polyethylene glycol‑amino)[Nle]PKKATELKHLQCLEEELKPLEEVL[hSer]LAQSKNFHLRPRDLISNINVIVLELKGSETTF[hSer]CEYADETATIVEFLNRWITFSQSIISTLT
modifications: also: uPa cleavage product, not given here as a sequence, Lys23 side-chain attachment remnant unknown
B3: CMP-326, Matriptase cleaved molecule (ligand)
chain: APTSSSTKKTQLQLEHLLLDLQEILNGINNYKNPKLTR[Nle]L[hSer][Yn3″]KF[Ygp″][Nle]PKKATELKHLQCLEEELKPLEEVL[hSer]LAQSKNFHLRPRDLISNINVIVLELKGSETTF[hSer]CEYADETATIVEFLNRWITFSQSIISTLT
modifications: not fully specified; ends and bridges not checked; also: Lys9-Glu23 peptide bridge cut by matriptase, fragments left on side chains not given here
B4: CMP-316, Matriptase cleaved molecule (ligand)
chain: APTSSSTKKTQLQLEHLLLDLQKILNGINNYKNPKLTR[Nle]L[hSer]Y(9x polyethylene glycol‑azido)KFY(8x polyethylene glycol‑amino)[Nle]PKKATELKHLQCLEEELKPLEEVL[hSer]LAQSKNFHLRPRDLISNINVIVLELKGSETTF[hSer]CEYADETATIVEFLNRWITFSQSIISTLT
modifications: also: matriptase cleavage product, not given here as a sequence, Lys23 side-chain attachment remnant unknown
B5: CMP-328 (ligand)
chain: APTSSSTKKTQLQLEHLLLDLQEILNGINNYKNPKLTR[Nle]L[hSer][Yn3″]KF[Ygp″][Nle]PKKATELKHLQCLEEELKPLEEVL[hSer]LAQSKNFHLRPRDLISNINVIVLELKGSETTF[hSer]CEYADETATIVEFLNRWITFSQSIISTLT
modifications: bridge 9-23; not fully specified (bridges); ends not checked
B6: CMP-331, MMP2 cleaved molecule (ligand)
chain: APTSSSTKKTQLQLEHLLLDLQKILNGINNYKNPKLTR[Nle]L[hSer]Y(9x polyethylene glycol‑azido)KFY(8x polyethylene glycol‑amino)[Nle]PKKATELKHLQCLEEELKPLEEVL[hSer]LAQSKNFHLRPRDLISNINVIVLELKGSETTF[hSer]CEYADETATIVEFLNRWITFSQSIISTLT
modifications: not fully specified; also: N-terminus (pentanedioic acid-PEG9 linker) and Lys23 side chain attached to another sequence, what remains after MMP2 cleavage is not given here
B7: CMP-327, uPa cleaved molecule (ligand)
chain: APTSSSTKKTQLQLEHLLLDLQEILNGINNYKNPKLTR[Nle]L[hSer][Yn3″]KF[Ygp″][Nle]PKKATELKHLQCLEEELKPLEEVL[hSer]LAQSKNFHLRPRDLISNINVIVLELKGSETTF[hSer]CEYADETATIVEFLNRWITFSQSIISTLT
modifications: ends and bridges not checked; also: after uPa cleavage, remnants of the Lys9–Glu23 peptide linker not given here
B8: CMP-326 (ligand)
chain: APTSSSTKKTQLQLEHLLLDLQEILNGINNYKNPKLTR[Nle]L[hSer][Yn3″]KF[Ygp″][Nle]PKKATELKHLQCLEEELKPLEEVL[hSer]LAQSKNFHLRPRDLISNINVIVLELKGSETTF[hSer]CEYADETATIVEFLNRWITFSQSIISTLT
modifications: bridge 9-23; not fully specified (bridges); ends not checked; also: further groups not given here
B9: CMP-331 (ligand)
chain: APTSSSTKKTQLQLEHLLLDLQKILNGINNYKNPKLTR[Nle]L[hSer]Y(9x polyethylene glycol‑azido)KFY(8x polyethylene glycol‑amino)[Nle]PKKATELKHLQCLEEELKPLEEVL[hSer]LAQSKNFHLRPRDLISNINVIVLELKGSETTF[hSer]CEYADETATIVEFLNRWITFSQSIISTLT
modifications: bridge N-23; not fully specified (bridges)
B10: CMP-327 (ligand)
chain: APTSSSTKKTQLQLEHLLLDLQEILNGINNYKNPKLTR[Nle]L[hSer][Yn3″]KF[Ygp″][Nle]PKKATELKHLQCLEEELKPLEEVL[hSer]LAQSKNFHLRPRDLISNINVIVLELKGSETTF[hSer]CEYADETATIVEFLNRWITFSQSIISTLT
modifications: bridge 9-23; not fully specified (bridges); ends not checked; also: further groups not given here
B11: CMP-326, uPa cleaved molecule (ligand)
chain: APTSSSTKKTQLQLEHLLLDLQEILNGINNYKNPKLTR[Nle]L[hSer][Yn3″]KF[Ygp″][Nle]PKKATELKHLQCLEEELKPLEEVL[hSer]LAQSKNFHLRPRDLISNINVIVLELKGSETTF[hSer]CEYADETATIVEFLNRWITFSQSIISTLT
modifications: not fully specified; ends and bridges not checked; also: Lys9-Glu23 peptide bridge cut by uPa, fragments left on side chains not given here
B12: CMP-327, Matriptase cleaved molecule (ligand)
chain: APTSSSTKKTQLQLEHLLLDLQEILNGINNYKNPKLTR[Nle]L[hSer][Yn3″]KF[Ygp″][Nle]PKKATELKHLQCLEEELKPLEEVL[hSer]LAQSKNFHLRPRDLISNINVIVLELKGSETTF[hSer]CEYADETATIVEFLNRWITFSQSIISTLT
modifications: ends and bridges not checked; also: Lys9-Glu23 peptide bridge cut by matriptase, fragments left on side chains not given here
B13: CMP-326, MMP2 cleaved molecule (ligand)
chain: APTSSSTKKTQLQLEHLLLDLQEILNGINNYKNPKLTR[Nle]L[hSer][Yn3″]KF[Ygp″][Nle]PKKATELKHLQCLEEELKPLEEVL[hSer]LAQSKNFHLRPRDLISNINVIVLELKGSETTF[hSer]CEYADETATIVEFLNRWITFSQSIISTLT
modifications: not fully specified; ends and bridges not checked; also: Lys9-Glu23 peptide bridge cut by MMP2, fragments left on side chains not given here
B14: CMP-327, MMP2 cleaved molecule (ligand)
chain: APTSSSTKKTQLQLEHLLLDLQEILNGINNYKNPKLTR[Nle]L[hSer][Yn3″]KF[Ygp″][Nle]PKKATELKHLQCLEEELKPLEEVL[hSer]LAQSKNFHLRPRDLISNINVIVLELKGSETTF[hSer]CEYADETATIVEFLNRWITFSQSIISTLT
modifications: ends and bridges not checked; also: Lys9-Glu23 peptide bridge cut by MMP2, fragments left on side chains not given here
B15: CMP-316, MMP2 cleaved molecule (ligand)
chain: APTSSSTKKTQLQLEHLLLDLQKILNGINNYKNPKLTR[Nle]L[hSer]Y(9x polyethylene glycol‑azido)KFY(8x polyethylene glycol‑amino)[Nle]PKKATELKHLQCLEEELKPLEEVL[hSer]LAQSKNFHLRPRDLISNINVIVLELKGSETTF[hSer]CEYADETATIVEFLNRWITFSQSIISTLT
modifications: also: K23 side chain attached to another sequence, m93 after MMP2 cleavage, product not given here as a sequence

Biological target: T1, IL-2 receptor βγ complex
Assay: cell-based or functional assay

Binder	Average EC50, pSTAT5 Assay in NK cells
B1	1.48 nM
B2	0.533 nM
B3	17.6 nM
B4	0.617 nM
B5	9.23 nM
B6	5.09 nM
B7	12.1 nM
B8	15.5 nM
B9	6.59 nM
B10	16.6 nM
B11	18 nM
B12	17.3 nM
B13	16 nM
B14	0.85 nM
B15	0.46 nM
